The assay concerns the target CD177 (UniProt Q8N6Q3). The assay is described as follows: SPR; Biacore T200; CD177 amine coupled to a CM5 chip (about 770 counts for kinetic measurements); PR3 or AAT as soluble analytes in 10 mM HEPES, 150 mM NaCl, 0.05% Tween20; 30 μL/minute; 25°C.

B1: purified proteinase 3 (enzyme)
chain: IVGGHEAQPHSRPYMASLQMRGNPGSHFCGGTLIHPSFVLTAAHCLRDIPQRLVNVVLGAHNVRTQEPTQQHFSVAQVFLNNYDAENKLNDVLLIQLSSPANLSASVATVQLPQQDQPVPHGTQCLAMGWGRVGAHDPPAQVLQELNVTVVTFFCRPHNICTFVPRRKAGICFGDSGGPLICDGIIQGIDSFVIWGCATRLFPDFFTRVALYVDWIRSTLR
By Kd is commonly meant the equilibrium constant for the complex coming apart. Regarding B1, the Kd worked out at 20 nM.

The values are drawn from article PMC9711875.
